Results as given in patent US20240261333A1 (published 2024).

Experiments:
Assay in all cases: co-IP, anti-FLAG, lysate of cells with N-FLAG B3GNT2; mass spectrometry
KRT6B = target: T1, KRT6B (human, UniProt P04259 2-564)
T1 construct: also called NP_00546.2
T1 sequence (looked up): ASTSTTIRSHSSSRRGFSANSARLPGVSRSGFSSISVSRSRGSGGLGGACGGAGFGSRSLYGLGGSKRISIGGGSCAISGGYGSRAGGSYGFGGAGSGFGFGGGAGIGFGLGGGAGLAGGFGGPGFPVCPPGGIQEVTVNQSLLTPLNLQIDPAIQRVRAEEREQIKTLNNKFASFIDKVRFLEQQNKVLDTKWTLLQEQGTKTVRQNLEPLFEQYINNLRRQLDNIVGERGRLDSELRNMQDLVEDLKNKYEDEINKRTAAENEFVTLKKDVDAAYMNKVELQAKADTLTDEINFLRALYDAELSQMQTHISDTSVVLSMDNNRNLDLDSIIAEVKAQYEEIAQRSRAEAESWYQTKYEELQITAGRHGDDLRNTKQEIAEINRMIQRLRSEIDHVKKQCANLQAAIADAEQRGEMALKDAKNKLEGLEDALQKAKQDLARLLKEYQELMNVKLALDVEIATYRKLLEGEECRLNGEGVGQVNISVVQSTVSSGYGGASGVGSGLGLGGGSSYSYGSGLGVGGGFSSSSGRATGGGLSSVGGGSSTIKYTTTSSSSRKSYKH
Method: (§1) Cells were plated in 10-cm cell culture dishes and grown to 60-80% confluency. For each condition, two biological replicates were harvested for co-IP. Cells were washed with PBS and 4 mL of lysis buffer (20 mM HEPES, 1% Triton X-100, 150 mM NaCl, 1 mM EDTA, and 10% glycerol) containing protease inhibitor cocktail was added. Cells were scraped and lysate was incubated at 4° C. under rotary agitation for 1 h. Lysate was centrifuged at 14,000×g for 10 min at 4° C. Supernatant was transferred to a new tube and an aliquot was taken as the input. […] For Western blots, 10 μg/mL Chicken Anti-FLAG (Aves labs ET-DY100) and IgY control (R&D Systems AB-101-C) antibodies were biotinylated (Thermo Fisher Scientific 90407) and added to the respective conditions. Lysates with antibodies were incubated at 4° C. under rotary agitation overnight. For each mL of lysate, 50 μL of Pierce Protein A/G Magnetic Beads (Mass spectrometry; Thermo Fisher Scientific 88803) or Pierce Streptavidin Magnetic Beads (Western blot; Thermo Fisher Scientific 88817) was washed twice with lysis buffer. Lysates with antibodies were added to the beads and incubated at 4° C. under rotary agitation for 4 h. Beads were washed with lysis buffer 3 times and resuspended in lysis buffer for storage.
(§2) Magnetic beads were resuspended in 100 mM Tris pH 7.8, reduced, alkylated and digested with trypsin at 37° ° C. overnight. This solution was subjected to solid phase extraction to concentrate the peptides and remove unwanted reagents followed by injection onto a Shimadzu HPLC with fraction collector. Eight fractions were collected and after concentration were injected on a Waters NanoAcquity HPLC equipped with a self-packed Aeris 3 μm C18 analytical column 0.075 mm by 20 cm, (Phenomenex). Peptides were eluted using standard reverse-phase gradients. The effluent from the column was analyzed using a Thermo Orbitrap Elite mass spectrometer (nanospray configuration) operated in a data dependent manner for 54 minutes. The resulting fragmentation spectra were correlated against the known database using Proteome Discover 1.4 (Thermo Fisher Scientific).

RPS28 = RPS28 (human, UniProt P62857 1-69)
Method: as §1, §2

PARP1 = target: T2, PARP1 (human, UniProt P09874 2-1014)
T2 construct: also called NP_001609.2
T2 sequence (P09874 2-1014 limits assumed): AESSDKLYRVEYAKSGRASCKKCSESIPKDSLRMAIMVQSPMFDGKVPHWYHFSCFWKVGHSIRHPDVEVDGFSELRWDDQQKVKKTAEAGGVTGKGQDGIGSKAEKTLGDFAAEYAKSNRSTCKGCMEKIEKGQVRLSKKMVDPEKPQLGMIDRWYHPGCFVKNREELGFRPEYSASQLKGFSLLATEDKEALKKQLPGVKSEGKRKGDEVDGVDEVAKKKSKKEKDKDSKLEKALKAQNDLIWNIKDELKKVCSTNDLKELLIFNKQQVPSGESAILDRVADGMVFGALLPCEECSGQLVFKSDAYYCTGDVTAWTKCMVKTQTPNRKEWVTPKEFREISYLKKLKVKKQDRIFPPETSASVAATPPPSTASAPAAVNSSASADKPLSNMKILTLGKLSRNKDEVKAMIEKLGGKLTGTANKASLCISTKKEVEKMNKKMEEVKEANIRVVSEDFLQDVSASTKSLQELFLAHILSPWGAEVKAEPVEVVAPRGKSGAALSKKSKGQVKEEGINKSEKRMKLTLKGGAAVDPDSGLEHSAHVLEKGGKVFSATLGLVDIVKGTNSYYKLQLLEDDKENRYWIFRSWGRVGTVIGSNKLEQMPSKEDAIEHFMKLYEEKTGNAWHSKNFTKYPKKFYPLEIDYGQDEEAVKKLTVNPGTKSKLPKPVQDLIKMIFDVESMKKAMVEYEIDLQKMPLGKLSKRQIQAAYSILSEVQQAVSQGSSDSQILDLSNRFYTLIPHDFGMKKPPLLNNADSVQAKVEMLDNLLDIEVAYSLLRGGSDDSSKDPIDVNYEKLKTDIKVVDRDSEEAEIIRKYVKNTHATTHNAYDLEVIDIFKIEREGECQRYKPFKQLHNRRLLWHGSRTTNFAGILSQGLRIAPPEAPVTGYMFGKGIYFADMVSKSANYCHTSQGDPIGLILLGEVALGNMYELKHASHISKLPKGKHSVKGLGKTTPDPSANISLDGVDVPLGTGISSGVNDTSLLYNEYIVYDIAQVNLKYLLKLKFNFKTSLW
Method: as §1, §2

SPTAN1 = target: T3, SPTAN1 (human, UniProt Q13813-2 1-2477, limits assumed)
T3 construct: also called NP_001123910.1 (+10)
Method: as §1, §2

EIF5B = target: T4, EIF5B (human, UniProt O60841 1-1220)
T4 construct: also called NP_056988.3
T4 sequence (looked up): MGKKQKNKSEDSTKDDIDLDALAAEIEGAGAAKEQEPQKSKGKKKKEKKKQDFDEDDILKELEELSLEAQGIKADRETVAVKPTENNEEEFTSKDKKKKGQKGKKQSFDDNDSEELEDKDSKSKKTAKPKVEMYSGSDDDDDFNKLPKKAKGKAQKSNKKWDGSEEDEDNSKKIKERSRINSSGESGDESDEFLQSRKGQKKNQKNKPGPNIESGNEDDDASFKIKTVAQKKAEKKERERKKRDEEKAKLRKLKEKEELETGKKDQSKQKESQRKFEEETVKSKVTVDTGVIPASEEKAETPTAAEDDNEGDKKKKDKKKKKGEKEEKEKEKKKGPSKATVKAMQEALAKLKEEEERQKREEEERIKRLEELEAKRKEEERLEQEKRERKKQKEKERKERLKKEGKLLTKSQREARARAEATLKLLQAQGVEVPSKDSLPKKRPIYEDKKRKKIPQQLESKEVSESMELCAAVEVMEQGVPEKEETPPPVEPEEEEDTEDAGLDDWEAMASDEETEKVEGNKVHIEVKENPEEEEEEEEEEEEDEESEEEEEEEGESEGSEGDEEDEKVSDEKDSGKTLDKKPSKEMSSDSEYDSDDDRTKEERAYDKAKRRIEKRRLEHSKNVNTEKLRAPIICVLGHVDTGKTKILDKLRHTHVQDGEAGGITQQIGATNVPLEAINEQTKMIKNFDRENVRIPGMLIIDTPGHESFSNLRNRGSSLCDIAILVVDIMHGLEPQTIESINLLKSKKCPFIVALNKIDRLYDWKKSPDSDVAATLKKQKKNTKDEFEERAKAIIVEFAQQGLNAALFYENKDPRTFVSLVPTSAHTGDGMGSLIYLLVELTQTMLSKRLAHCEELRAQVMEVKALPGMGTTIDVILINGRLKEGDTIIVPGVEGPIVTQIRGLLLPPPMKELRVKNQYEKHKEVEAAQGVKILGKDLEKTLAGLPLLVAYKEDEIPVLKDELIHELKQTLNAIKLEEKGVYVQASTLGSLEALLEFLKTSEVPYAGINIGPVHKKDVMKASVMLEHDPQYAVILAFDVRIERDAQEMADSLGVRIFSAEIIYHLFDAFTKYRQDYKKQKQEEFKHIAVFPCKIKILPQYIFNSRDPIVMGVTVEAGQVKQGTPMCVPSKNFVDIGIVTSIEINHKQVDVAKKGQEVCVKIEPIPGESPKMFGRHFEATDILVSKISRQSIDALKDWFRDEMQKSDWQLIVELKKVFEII
Method: as §1, §2

co-IP mass spectrometry count (KRT6B): 370
co-IP mass spectrometry count (RPS28): 0
co-IP mass spectrometry count (PARP1): 0
co-IP mass spectrometry count (SPTAN1): 0
co-IP mass spectrometry count (EIF5B): 0
B1: N-terminal FLAG tagged B3GNT2 (enzyme, human, UniProt Q9NY97 1-397, looked up)
chain: MSVGRRRIKLLGILMMANVFIYFIMEVSKSSSQEKNGKGEVIIPKEKFWKISTPPEAYWNREQEKLNRQYNPILSMLTNQTGEAGRLSNISHLNYCEPDLRVTSVVTGFNNLPDRFKDFLLYLRCRNYSLLIDQPDKCAKKPFLLLAIKSLTPHFARRQAIRESWGQESNAGNQTVVRVFLLGQTPPEDNHPDLSDMLKFESEKHQDILMWNYRDTFFNLSLKEVLFLRWVSTSCPDTEFVFKGDDDVFVNTHHILNYLNSLSKTKAKDLFIGDVIHNAGPHRDKKLKYYIPEVVYSGLYPPYAGGGGFLYSGHLALRLYHITDQVHLYPIDDVYTGMCLQKLGLVPEKHKGFRTFDIEEKNKNNICSYVDLMLVHSRKPQEMIDIWSQLQSAHLKC
notes: Overexpressed in cells and pulled down from the lysate with mouse anti-FLAG antibody; also called N-FLAG B3GNT2; N-term FLAG; not shown: N-terminal FLAG tag
